Reference: patent US20210403593A1 (TIZONA THERAPEUTICS, published 2021)
Changes are numbered by the printed parent chain.

B1: 27590 (antibody, V domains shown)
VH: QVQLVQSGAEVKKPGSSVKVSCKASGGTFSNYAISWVRQAPGQGLEWMGGIIPIFGTANYAQKFQGRVTITADESTSTAYMELSSLRSEDTAVYYCARGPTVTATTSIGTHNWFDPWGQGTLVTVSS
VL: EIVLTQSPATLSLSPGERATLSCRASQSVSSYLAWYQQKPGQAPRLLIYDASNRATGIPARFSGSGSGTDFTLTISSLEPEDFAVYYCQQRNFYPPTFGGGTKVEIK
B2: 27535 (antibody, human IgG4 S228P, kappa, V domains shown)
VH: QVQLVQSGAEVKKPGSSVKVSCKASGGTFSSYAISWVRQAPGQGLEWMGGIIPIFGTANYAQKFQGRVTITADESTSTAYMELSSLRSEDTAVYYCARDTPRWRYHYFDYWGQGTLVTVSS
VL: EIVLTQSPATLSLSPGERATLSCRASQSVSSYLAWYQQKPGQAPRLLIYDASKRATGIPARFSGSGSGTDFTLTISSLEPEDFAVYYCQQVLNYPLTFGGGTKVEIKR
B3: 27597 (antibody, human IgG4 S228P, kappa, V domains shown)
VH: QVQLVQSGAEVKKPGSSVKVSCKASGGTFSSYAISWVRQAPGQGLEWMGSIIPIFGTANYAQKFQGRVTITADESTSTAYMELSSLRSEDTAVYYCAREGRGYDSSRYYKFWFDPWGQGTLVTVSS
VL: B2 VL with K53N, V91F, L92V, N93L, Y94W, L96R
B4: 27596 (antibody, human IgG4 S228P, kappa, V domains shown)
VH: B2 VH with T100P, P101L, R102G, W103I, Y105K, Y107W, Y110P
VL: B2 VL with L4M, K53N, V91H, L92T, N93V, Y94W, L96I
B5: 27568 (antibody, human IgG4 S228P, kappa, V domains shown)
VH: QVQLVQSGAEVKKPGSSVKVPCKASGGTFSSYAISWVRQAPEQGLEWMGSIIPIFGTANYAQKFQGRVTITADESTSTAYMELSSLRSEDTAVYYCAGESGGYRDHKLDVWGQGTVVTVSS
VL: B2 VL with K53N, V91S, L92V, N93F, Y94W, L96I
B6: 27587 (antibody, human IgG4 S228P, kappa, V domains shown)
VH: B5 VH with P21S, E42G, G98R, V116M
VL: B2 VL with V91D, L92V, N93L, Y94W
B7: 28347 (antibody, V domains shown)
VH: QVQLVQSGAEVKKPGSSVKVSCKASGGTFSSLAISWVRQAPGQGLEWMGGIIPIFGTANYAQKFQGRVTITADESTNTAYMELSSLRSEDTAVYYCARGGAKYASTYGMDVWGQGTTVTVSS
VL: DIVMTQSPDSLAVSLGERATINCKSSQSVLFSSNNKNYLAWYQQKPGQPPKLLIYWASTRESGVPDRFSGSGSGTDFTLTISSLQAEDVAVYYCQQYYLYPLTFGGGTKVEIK
B8: 27589 (antibody, human IgG4 S228P, kappa, V domains shown)
VH: QVQLVQSGAEVKKPGSSVKVSCKASGGTFSSYAISWVRQAPGQGLEWMGGIIPIFGTANYAQKFQGRVTITADESTSTAYMELSSLRSEDTAVYYCARDSGYHRHYSDYWGQGTLVTVSS
VL: DIQMTQSPSTLSASVGDRVTITCRASQSISSWLAWYQQKPGKAPKLLIYKASSLESGVPSRFSGSGSGTEFTLTISSLQPDDFATYYCQQYGLFPITFGGGTKVEIKR
B9: 27588 (antibody, V domains shown)
VH: QVQLVQSGAEVKKPGSSVKVSCKASGGTFSNYAISWVRQAPGQGLEWMGGIIPIFGTANYAQKFQGRVTITADESTSTAYMELSSLRSEDTAVYYCARAKRGYDSYGGVYFDYWGQGTLVTVSS
VL: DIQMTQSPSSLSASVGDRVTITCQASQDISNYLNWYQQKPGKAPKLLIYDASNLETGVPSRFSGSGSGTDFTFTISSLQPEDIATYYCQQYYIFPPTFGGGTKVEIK
B10: 27577 (antibody, human IgG4 S228P, kappa, V domains shown)
VH: QVQLVQSGAEVKKPGSSVKVSCKASGGAFSSYAIGWVRQAPGQGLEWMGGIIPTFGTANYAQKFQGRVTITADESTSTAYMELSSLRSEDTAVYYCARDGGGYQHHYFDLWGRGTLVTVSS
VL: EIVMTQSPATLSVSPGERATLSCRASQSVGSNLAWYQQKPGQAPRLLIYGASTRATGIPARFSGSGSGTEFTLTISSLQSEDFAVYYCQQLTKWPLTFGGGTKVEIKR
B11: 27579 (antibody, V domains shown)
VH: QVQLVQSGAEVKEPGASVKVSCKAPGYTFTSYYMHWVRQAPGQGLEWMGVINPSGGSTSYAQKFQGRVTMTRDTSTSTVYMELSSLRSEDTAVYYCARGKREGGTEYLRHWGQGTLVTVSS
VL: EIVLTQSPGTLSLSPGERATLSCRASQSVSSSYLAWYQQKPGQAPRLLIYGASSRATGIPDRFSGSGSGTDFTLTISRLEPEDFAVYYCQQYHSYITFGGGTKVEIK
B12: 31429 (antibody, V domains shown)
VH: B11 VH with E13K, P25S, T30V, Y33F, V50S, S54R
VL: B11 VL with S28Y, G51Y, S54N, Y95G
B13: 31421 (antibody, V domains shown)
VH: B11 VH with E13K, P25S, T30F, H35Y, S54L, S57G
VL: B11 VL with R24K, Q27E, G51Y, S94R, Y95R
B14: 29872 (antibody, V domains shown)
VH: B11 VH with E13K, P25S, T30K, Y33E, V50R, G55V, S59W
VL: B11 VL
notes: also called anti-CD39 antibody 29872
B15: 31431 (antibody, V domains shown)
VH: B11 VH with E13K, P25S, Y33Q, V50R, S59W
VL: B11 VL with S30A, S54N, A56H, S94G, Y95G
B16: 27550 (antibody, human IgG4 S228P, kappa, V domains shown)
VH: EVQLVESGGGLVKPGGSLRLSCAASGFTFSSYSMNWVRQAPGKGLEWVSSISSSSSYIYYADSVKGRFTISRDNAKNSLYLQMNSLRAEDTAVYYCARERRGSLALGMDVWGQGTLVTVSS
VL: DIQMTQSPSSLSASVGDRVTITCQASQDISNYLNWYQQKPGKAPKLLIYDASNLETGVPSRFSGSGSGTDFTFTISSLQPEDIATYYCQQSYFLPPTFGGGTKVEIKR
B17: 27536 (antibody, V domains shown)
VH: QVQLVQSGAEVKKPGSSVKVSCKASGGTFSNYAISWVRQAPGQGLEWMGGIIPIFGTANYAQKFQGRVTITADESTSTAYMELSSLRSEDTAVYYCARDTLYSSGAYYGYNVWGQGTMVTVSS
VL: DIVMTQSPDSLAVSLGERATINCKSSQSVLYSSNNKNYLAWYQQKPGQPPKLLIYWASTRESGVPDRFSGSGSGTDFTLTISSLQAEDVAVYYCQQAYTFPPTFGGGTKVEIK
B18: 27549 (antibody, human IgG4 S228P, kappa, V domains shown)
VH: QVQLVESGGGVVQPGRSLRLSCAASGFTFSSYGMNWVRQAPGKGLEWVAVIWYDGSNKYYADSVKGRFTISRDNSKNTLYLQMNSLRAEDTAVYYCARDLGGYSYGEPYYYYYGMDVWGQGTTVTVSS
VL: EIVLTQSPGTLSLSPGERATLSCRASQSVSSDYLAWYQQKPGQAPRLLIYGASSRATGIPDRFSGSGSGTDFTLTISRLEPEDFAVYYCQQAHSSPYTFGGGTKVEIKR
B19: 27571 (antibody, V domains shown)
VH: B5 VH with V20A, P21S, E42G, Q65R, A79T, G98R, K107R, V116M
VL: EIVMTQSPATLSVSPGERATLSCRASQSVGSNLAWYQQKPGQAPRLLIYGASTRATGIPARFSGSGSGTEFTLTISSLQSEDFAVYYCQQYLIWPLTFGGGTKVEIK
B20: 31393 (antibody, human IgG4 S228P, kappa, V domains shown)
VH: B5 VH with P21S, S30E, A33G, E42G, I54E, T57I, A79T, G98R, K107R, V116M
VL: B10 VL with L91Y, T92L, K93L
B21: 31861 (antibody, human IgG4 S228P, kappa, V domains shown)
VH: B5 VH with P21S, S30G, A33G, E42G, I54E, T57I, G98R, G102T, K107R, V116M
VL: B10 VL with L91Y, T92L, K93L

The binders below were run against T1, human CD39 (cellular) (human, UniProt P49961 1-510) (assay: flow cytometry, 100 nM IgG, MFI on CHO-hCD39 / MFI on parental CHO;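 note: cells exposed to IgG for 30 min on ice in PBS, bound antibody then revealed with a fluorescent goat anti-human IgG secondary (20 min, on ice)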).
T1 construct: Same protein on engineered CHO cells and on cells that express it endogenously; also called hCD39; cellular CD39
T1 sequence: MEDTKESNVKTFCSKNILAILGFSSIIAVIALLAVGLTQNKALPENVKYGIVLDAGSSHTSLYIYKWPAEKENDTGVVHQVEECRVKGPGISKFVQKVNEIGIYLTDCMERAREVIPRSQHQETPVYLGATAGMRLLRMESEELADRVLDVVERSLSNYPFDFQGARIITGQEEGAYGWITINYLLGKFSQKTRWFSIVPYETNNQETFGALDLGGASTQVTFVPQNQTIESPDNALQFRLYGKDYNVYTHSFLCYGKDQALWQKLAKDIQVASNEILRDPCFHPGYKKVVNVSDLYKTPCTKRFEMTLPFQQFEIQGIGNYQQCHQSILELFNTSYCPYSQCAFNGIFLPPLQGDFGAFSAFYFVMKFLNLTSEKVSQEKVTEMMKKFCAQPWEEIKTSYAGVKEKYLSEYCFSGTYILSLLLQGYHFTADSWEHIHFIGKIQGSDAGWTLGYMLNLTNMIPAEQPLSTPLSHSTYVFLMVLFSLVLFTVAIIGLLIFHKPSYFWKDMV

Question: For B1, which “Cell Binding (FOB)” value is on record?
Answer: 33 fold over background

Question: With B2 as the binder, how does the “Cell Binding (FOB)” value read?
Answer: 301 fold over background

Question: Which “Cell Binding (FOB)” value does the source give for B3 here?
Answer: 799 fold over background

Question: B4 was tested. Which “Cell Binding (FOB)” value did it give?
Answer: 252 fold over background

Question: For B5, which “Cell Binding (FOB)” value is on record?
Answer: 267 fold over background

Question: For B6, which “Cell Binding (FOB)” value is on record?
Answer: 1450 fold over background

Question: How did the “Cell Binding (FOB)” value turn out when B7 was run?
Answer: 1020 fold over background

Question: How did the “Cell Binding (FOB)” value turn out when B8 was run?
Answer: 311 fold over background

Question: Which “Cell Binding (FOB)” value does the source give for B9 here?
Answer: 10 fold over background

Question: With B10 as the binder, how does the “Cell Binding (FOB)” value read?
Answer: 390 fold over background

Question: Which “Cell Binding (FOB)” value does the source give for B11 here?
Answer: 1950 fold over background

Question: How did the “Cell Binding (FOB)” value turn out when B12 was run?
Answer: 1290 fold over background

Question: B13 was tested. Which “Cell Binding (FOB)” value did it give?
Answer: 1080 fold over background

Question: Which “Cell Binding (FOB)” value does the source give for B14 here?
Answer: 1450 fold over background

Question: Which “Cell Binding (FOB)” value does the source give for B15 here?
Answer: 1240 fold over background

Question: How did the “Cell Binding (FOB)” value turn out when B16 was run?
Answer: 2030 fold over background

Question: Which “Cell Binding (FOB)” value does the source give for B17 here?
Answer: 89 fold over background

Question: For B18, which “Cell Binding (FOB)” value is on record?
Answer: 822 fold over background

Question: With B19 as the binder, how does the “Cell Binding (FOB)” value read?
Answer: 1400 fold over background

Question: How did the “Cell Binding (FOB)” value turn out when B20 was run?
Answer: 1060 fold over background

Question: How did the “Cell Binding (FOB)” value turn out when B21 was run?
Answer: 1430 fold over background

Biological target: T2, cynomolgus macaque (Macaca fascicularis) CD39 (Macaca fascicularis, UniProt P49961 7-510 (human entry))
T2 construct: On engineered CHO cells and on primary cyno B cells and monocytes; also called cyno CD39; cCD39
T2 chain: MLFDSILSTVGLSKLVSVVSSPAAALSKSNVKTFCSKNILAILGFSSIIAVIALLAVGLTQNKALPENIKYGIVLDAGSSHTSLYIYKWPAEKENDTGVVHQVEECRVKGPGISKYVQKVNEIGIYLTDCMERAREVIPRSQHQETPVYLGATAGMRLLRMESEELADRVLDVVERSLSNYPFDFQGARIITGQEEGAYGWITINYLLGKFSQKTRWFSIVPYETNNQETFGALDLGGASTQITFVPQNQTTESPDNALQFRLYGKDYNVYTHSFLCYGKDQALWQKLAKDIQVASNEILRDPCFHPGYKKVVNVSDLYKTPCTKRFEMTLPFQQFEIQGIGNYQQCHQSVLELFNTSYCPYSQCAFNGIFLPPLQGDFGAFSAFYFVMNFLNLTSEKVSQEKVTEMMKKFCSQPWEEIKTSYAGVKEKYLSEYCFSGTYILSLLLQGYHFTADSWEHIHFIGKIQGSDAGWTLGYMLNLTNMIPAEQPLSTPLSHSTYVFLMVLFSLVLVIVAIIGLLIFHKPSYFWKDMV
Experiment: flow cytometry, 100 nM IgG, MFI on CHO-cCD39 / MFI on parental CHO;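 note: antibodies bound to the cells for 30 min in PBS, then bound IgG was revealed with a fluorescent goat anti-human IgG secondary antibody, 20 min on ice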

Question: For B1, which “Cell Binding (FOB)” value is on record?
Answer: 44 fold over background

Question: For B2, which “Cell Binding (FOB)” value is on record?
Answer: 738 fold over background

Question: With B3 as the binder, how does the “Cell Binding (FOB)” value read?
Answer: 908 fold over background

Question: For B4, which “Cell Binding (FOB)” value is on record?
Answer: 257 fold over background

Question: For B5, which “Cell Binding (FOB)” value is on record?
Answer: 260 fold over background

Question: How did the “Cell Binding (FOB)” value turn out when B6 was run?
Answer: 1400 fold over background

Question: How did the “Cell Binding (FOB)” value turn out when B7 was run?
Answer: 1340 fold over background

Question: How did the “Cell Binding (FOB)” value turn out when B8 was run?
Answer: 531 fold over background

Question: How did the “Cell Binding (FOB)” value turn out when B9 was run?
Answer: 14 fold over background

Question: B10 was tested. Which “Cell Binding (FOB)” value did it give?
Answer: 339 fold over background

Question: B11 was tested. Which “Cell Binding (FOB)” value did it give?
Answer: 2670 fold over background

Question: How did the “Cell Binding (FOB)” value turn out when B12 was run?
Answer: 3800 fold over background

Question: B13 was tested. Which “Cell Binding (FOB)” value did it give?
Answer: 3050 fold over background

Question: B14 was tested. Which “Cell Binding (FOB)” value did it give?
Answer: 4190 fold over background

Question: B15 was tested. Which “Cell Binding (FOB)” value did it give?
Answer: 3530 fold over background

Question: B16 was tested. Which “Cell Binding (FOB)” value did it give?
Answer: 2870 fold over background

Question: B17 was tested. Which “Cell Binding (FOB)” value did it give?
Answer: 113 fold over background

Question: How did the “Cell Binding (FOB)” value turn out when B18 was run?
Answer: 566 fold over background

Question: How did the “Cell Binding (FOB)” value turn out when B19 was run?
Answer: 1610 fold over background

Question: How did the “Cell Binding (FOB)” value turn out when B20 was run?
Answer: 2960 fold over background

Question: B21 was tested. Which “Cell Binding (FOB)” value did it give?
Answer: 5480 fold over background
